Measurements from the nanobody polyreactivity screen of Harvey et al. (2022).

Test: yeast display, Sf9 membrane polyspecificity reagent, FACS + sequencing; frameworks hold sequencing errors
In short: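 In a synthetic yeast display library (Saccharomyces cerevisiae BJ5465), nanobody expression was induced with galactose for 36–48 hours. FACS gates were set low and high (top ~1%) using anti-HA fluorescence for expression and streptavidin fluorescence for binding of the Sf9 membrane reagent. Each polyreactivity label is drawn from the gate of origin.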

Sequence	polyreactivity (PSR sort gate)
QVQLVESGGVLVQAGGSLRLSCAASGRIFGRYAMGWYRPAPGKERELVAAISWSGDSTYYADSVKGRFTISRDNSTNTVYLHMNSLKPEDTAVYYCATGGRGGRRYEYWGQGTQVTVSS	low polyreactivity
QVQLVESGGVLVQAGGSLRLSCAASGRIFIGYAMGGNRQAPGKERELVAAISSSGGRTYYADSVKGRFTISRDNAKYTVYLQMNSLKPEDSAVYYCAKSFTRNTDYEYWGQGTQVTVSS	high polyreactivity
QVQLVESGGVLVQAGGSLRLSCAASGRIFPYYAMGWYRQAPGKEREMVAAINSGGSTYYADSVKGRFTISRDNAKNTVYLQMNSLKPEDTAVYYCNADVLFEDGFFWDDYWGQGTQVTVSS	low polyreactivity
QVQLVESGGVLVQAGGSLRLSCAASGRIFTGNAMGWYRQAPGKETELVAAISRRGTRTYYADSVKGRFTISRDNAKNTVYLQMNSLKPEDTAVYYCATVLYKAYNDYGYWGQGTQVTVSS	high polyreactivity
QVQLVESGGVLVQAGGSLRLSCAASGRTFAYNTMGWYRQAPGKEREVVAAITWSGGGTYYADSVKGRFTISRDNAKKTVYLQLNSLKPEDTAVYYCAVEYATPRARFRYYYWGQGTKVTVSS	high polyreactivity
QVQLVESGGVLVQAGGSLRLSCAASGRTFSVYTMGWYRQAPGKERELVASINWSGGRTYYADSVKGRFTISRDKAKNTVYLQMNSLKPEDTAVYYCAATGWRTLYDYWGQGTQVTVSS	high polyreactivity
QVQLVESGGVLVQAGGSLRLSCAASGRTSFYYGVGWSRQAPGKERELVAGINYGGGSTYYADSVKGRFSISRDTAKNTVYLQMNSLKPEDTAVYYCAAYRRTLGDYWGQGTQVTVSS	low polyreactivity
QVQLVESGGVLVQAGGSLRLSCAASGSIFAGNAMGWYRQEPGKERELVAAISRSGTRTYYADSVKGRFTISRDNAMNTVYLQMNSLKPEDTAVYYFAAYLPYRQGRYGYEYWGQGTQVTVSS	high polyreactivity
QVQLVESGGVLVQAGGSLRLSCAASGSIFGIYTMGWYIHATGKERELVAAISWSGGSTYYADSVKGRFTISRDNAKNTVFLQMNSLKPEDTAVYYCAAVPWASDGYDSWGQGTQVTVSS	low polyreactivity
QVQLVESGGVLVQAGGSLRLSCAASGSIFNINAMGWYRQAPGKERELVAAMTSGDGTDYADSVKGRFTISRDNAKNTVYLQMNSLKPEDTAVYYCAAEYYWLVPERFDYWGQGTQVTVSS	low polyreactivity
QVQLVESGGVLVQAGGSLRLSCAASGSIYTWYAMGWYRQAPGKERELVAAITRGGSTYADSVKGRFTISRENAKNTVYLQMNSLKPEDTAVYYCNAVYGVYDFNYWGQGTQVTVSS	low polyreactivity
QVQLVESGGVLVQAGGSLRLSCAASGSTFYFNTMGWYRQAPGKERELVAAITATGASTYYADSVKGRFTISRDIAKNTVYLQMNSLKPEDTAVYYCNVRLRIRSGYWGQGTQVTVSS	high polyreactivity
QVQLVESGGVLVQAGGSLRLTCAASGFIFKIYAMGWYRQAPGKERELVARITRSGGSTYYADSVKGRFTNSRDNAKNTVYLQMNSLKPEDTAVYYCNAELFRYVRYEYWGQGTQVTVSS	high polyreactivity
QVQLVESGGVLVQAVGSLRLSCAASGRIFKNYAMGWYIQAPGKESELVAAISWSGGRTYYADSVKGRFTISRDNAKNTVYLQMNSLKPEDTAVYYCAVDFYYYGSRYYYWGQGTQVTVSS	high polyreactivity
QVQLVESGGVLVQAVGSLRLSCAASGSISSYYAMGWYIQAPGKERELVAAITSGGRTYYADSVKGRFTISRDNAKNTVYLQMNSLKPEATAVYYCAADPDTWSPHYESLGYYWGQGTQVTVSS	high polyreactivity
QVQLVESGGVLVQEGGSLSLSCTASRSIFLKYAMGWYRQAPGKERELVAAISSRDASTYYADSVKGRFSISRDNAKKSVYLQMNSLKPEDTAVYYCNVAQNYWAGLYDYWGQGTQVTVSS	high polyreactivity
QVQLVESGLGIVQAGGSLRVSCAASGSTISNYAMGWYRHAPGKERELVAAITSGGTTNYADSVKGRFTISRDNAKNTVYFQMNSLIPEDTAVYYCAKRYSYHVPTHLWVEYYYWGQGTQVTVSS	low polyreactivity
QVQLVESGLGLVQAGASLRVSCAASGSTFIFNTMGWSRQAPGKERELVAAIRLSGGSTYYADSVKGRFTITRDNAKNTVYLQMNSLNPEDTAVYYCARRLATRGHTYDYWGQGTQVTVSS	low polyreactivity
QVQLVESGLGLVQAGGSLRLSCAASGFTFTGYAMGWYRQAPGKERELVAAITRGGGSTYYADSVKGRFTISRDNAKNTVYLQMNSLKPEDTAVYYCAAQRSRLIRISSPYYGHEYWVQGTQVTVSS	low polyreactivity
QVQLVESGLGLVQAGGSLRLSCAASGRTFYYNAMGWYRQAPGKERELVAAISWSGGNTYYADSVKARFTISRDNAKNTVYLQMNSLKPEDTAVYYCAAVYRYYPGYDYWGHGTQVTVSS	high polyreactivity
QVQLVESGPGLFQAGGSLRLSCAASGNIFGYNVMAWYRQAPGKERELVAAITWSAGTTNYADSLKGRFTISRDNAKNTVYLQRNSLKPEDTAVYYFAVTWWYQDYDLTCYLYDYWGQGTEVTVSS	low polyreactivity
QVQLVESGPGLVQAGGSLRLSCAASGSTFAPYALGWYRQAPGIEMELVAAIRSSGGSTYYADSVKGGFTISRDNAKNTVYLQMNSLKPEDTAVYYCADDYYTSADYVDYYYWGQGTQVTVSS	low polyreactivity

Sequence	polyreactivity (PSR sort gate)
QVQLVESGRGFVQAGGSLRLSCADSGSTFRYYAMGWYRQAPGKERELVAAISWSGGSTYYADSVKGRFTISRDNAKNTVYLQMNSLKPEDTAVYYCAAEVYLVGSRWGPRYGDYWGQGTQVTVSS	high polyreactivity
QVQLVESGRGIVQAGGSLRLSCAASGSIFWLYAMGWYRQAPGKERELVAAISWSGTSTNYADSVKGRFTISRDNAKNTVYFQMNSLKPEDTAVYYCAKRWYNQKLFGYEEEYDYWGQGTQVTVSS	low polyreactivity
QVQLVESGRGIVQAGGSLRLSCAASGSTLNDYAMGSSRPAPGKERELVAAINGSGGSTYYADSVKGRFTISRDNAKNTVYLQMNSLKPEDTAVYYCAAATTHRRRYGYWGQGTQVTVSS	low polyreactivity
QVQLVESGRGLFQAGGRLRLSCAASGRIFSFYAMGWSRQAPGKERELVASITSGGITNYADSVKGRFTISRDNAKNTVYLQMNSLKPEDTAVYYCNAANPYRRVGSFTYKYDYWGQGTQVTVSS	low polyreactivity
QVQLVESGRGLVQAGGILRLSCDASGRTIYFNRMGWYRHAPGKEREFVAAINRSGGSTYYADSVKGRFTISRDNAKNTVYLQMNSLKPEDTAVYYCAADGVIFEYDYWGQGTQVTVSS	low polyreactivity
QVQLVESGRGLVQAGGRHRISCAASGSIIHDYAMGLYSQAPGKERELVAVISTSGGSTYYADSVKGRFTMSRDNAKNTVYLQMISLKPEETEVYYCNARTVGPYPSHAALEYDSWGPGTQVTVSS	low polyreactivity
QVQLVESGRGLVQAGGRLRLSCAASGSTFDGYAMGLYRQAPGKERELVAAITVSVGSTYYADSVKGRFTISRDNAKNTVYLQMNSLKPEDTAVYYCAADYDYQYRYYYWGQGTKVTVSS	low polyreactivity
QVQLVESGRGLVQAGGSLRISCAASGFTFRKYTMGWNRQAPGKERELVAAISRRGGSTYYADSVKSRFTISRDNAKNTVYLQMNSLKPEVTAVYYCATDHIPSVGVDYWGQGTQVTVSS	high polyreactivity
QVQLVESGRGLVQAGGSLRLRCAASGFTIYPYVMGWYRQAPGKERELVAAISWSGGRTSYADSVKGRFTISRDNAKNTVYLQMNSLKPEDTAVYYCATRPSHVLSEMDYWGQGTQVTVSS	low polyreactivity
QVQLVESGRGLVQAGGSLRLSCAASGFIFAKYDMGCYSKAPVKERELVAAITRSGARTYYADSVKGRFTISRDNAKTTVYLQMNSLKPEDTAVYYCAIVTTVYTYDYWGQGTQVTVSS	high polyreactivity
QVQLVESGRGLVQAGGSLRLSCAASGFTFYRYAMGWYRQAPGKERELVATISASGGSTYYADSVKGRFTISRDNAKNTVYLQMNSLKPVDTAVFYCARYIYRSAFDYWGQGTQVTVSS	high polyreactivity
QVQLVESGRGLVQAGGSLRLSCAASGFTLICNARGCYRQAPGKERELVAAITWSGGSTYYADSVKGRFTISRDKAKNTVYLQMNSLKPEDTAVYYCAADYSIQSNDDWGQGTQVTVSS	low polyreactivity
QVQLVESGRGLVQAGGSLRLSCAASGGTFGNNDMGWYRQAPGKERELVAAIRSAGTTYYADSVKGRFTISRDNAKNTVYLQMNSLKPEDTAVYYCNAYTTGYWSYGFQYYGEDYWGQGTQVTVSS	low polyreactivity
QVQLVESGRGLVQAGGSLRLSCAASGITFYTYAMGWYRQEPGKARELVATISSGGSTDYADSVKGRFTISRDNAKITVYLQMNSLKPEDTAVYYCADQYSYRIYYLYDYWGQGTQVTVSS	low polyreactivity
QVQLVESGRGLVQAGGSLRLSCAASGLIFGRNAMGWYIQAPGKERECVAANTSGGSTYYADSVKGRFTISRDNAKNSVYLQMNSLKPEDTAVYYCAADVVDLYLLDYWGQGTQVTVSS	low polyreactivity
QVQLVESGRGLVQAGGSLRLSCAASGLTFGHYAMGGYRQAPGKERELVAAITSGGRTYYADSVKGRFTISRDNAKNTVYLQMNSLKPEDTAVYYCATRGPRYRYYYWGQGTQVTVSS	high polyreactivity
QVQLVESGRGLVQAGGSLRLSCAASGRIFNLNAMGWYRQAPGKERELVAAITRGGRTIYADSVKGRFTISRDNAQNTVYLQMNSLKPEDTAVYYCAAAYYGSHGRYDYWGQGTQVTVSS	high polyreactivity
QVQLVESGRGLVQAGGSLRLSCAASGRIFSIYAMGWYRQAPGKERELVAAITRGGRTNYADSVKGRFTISRDNAKNTVYLQMNSLKPEDTAVYYCAARRIDGVVKPYDYWGQGTQVTVSS	low polyreactivity
QVQLVESGRGLVQAGGSLRLSCAASGRIFVHYAMGWYRQAPGKERELVAAITYSGDSTYYADSVKGRFTISRDNAKNTVYLQMNSLKPEDTAVYYCNAVVRRVLFDYDYWGQGTQVTVSS	high polyreactivity
QVQLVESGRGLVQAGGSLRLSCAASGRSFAVYAMAWYRPAPGKVMELVAAISSGGSTYYADSVKGRFTSSRDNAKNTVYVQMNSLKPEDSSVSYCAAGWKRLSGRKHYYWGQGTQVTVSS	high polyreactivity
QVQLVESGRGLVQAGGSLRLSCAASGRTFPFYAMGWYRQAPGKEREFVAAITASGDSTYYADSVKGRFTISRDNAKNTVYFQMHSLKPEDTAVYYCAADLPVWYVTRYDYWGQATQVTVSS	low polyreactivity
